Reference: PMC3884217

Target: Nud1 pT78 peptide (budding yeast)

Kd: 2400 nM
B1: Mob1 (construct not stated for this experiment) (natural protein)
chain: MSFLQNFHISPGQTIRSTRGFKWNTANAANNAGSVSPTKATPHNNTINGNNNNANTINNRADFTNNPVNGYNESDHGRMSPVLTTPKRHAPPPEQLQNVTDFNYTPSHQKPFLQPQAGTTVTTHQDIKQIVEMTLGSEGVLNQAVKLPRGEDENEWLAVHCVDFYNQINMLYGSITEFCSPQTCPRMIATNEYEYLWAFQKGQPPVSVSAPKYVECLMRWCQDQFDDESLFPSKVTGTFPEGFIQRVIQPILRRLFRVYAHIYCHHFNEILELNLQTVLNTSFRHFCLFAQEFELLRPADFGPLLELVMELRDR
